Data taken from patent US20210154314A1.

Assays:
Her2 (ErbB2) [1] = target: Her2 (ErbB2) (UniProt P04626); test: ligand binding assay ('Binding Activity'), format not described; lyophilized formula B2 after 37 C for 1 month
Her2 (ErbB2) [2] = target: Her2 (ErbB2) (UniProt P04626); test: ligand binding assay ('Binding Activity'), format not described; lyophilized formula B4 after 37 C for 1 month
Her2 (ErbB2) [3] = target: Her2 (ErbB2) (UniProt P04626); test: ligand binding assay ('Binding Activity'), format not described; lyophilized formula B2 after 25 C for 3 months
Her2 (ErbB2) [4] = target: Her2 (ErbB2) (UniProt P04626); test: ligand binding assay ('Binding Activity'), format not described; lyophilized formula B6 after 37 C for 1 month
Her2 (ErbB2) [5] = target: Her2 (ErbB2) (UniProt P04626); test: ligand binding assay ('Binding Activity'), format not described; lyophilized formula B2 after 4 C for 6 months
Her2 (ErbB2) [6] = target: Her2 (ErbB2) (UniProt P04626); test: ligand binding assay ('Binding Activity'), format not described; lyophilized formula B6 after 25 C for 3 months
Her2 (ErbB2) [7] = target: Her2 (ErbB2) (UniProt P04626); test: ligand binding assay ('Binding Activity'), format not described; lyophilized formula B4 after 25 C for 3 months
Her2 (ErbB2) [8] = target: Her2 (ErbB2) (UniProt P04626); test: ligand binding assay ('Binding Activity'), format not described; lyophilized formula B4 after 4 C for 6 months
Her2 (ErbB2) [9] = target: Her2 (ErbB2) (UniProt P04626); test: ligand binding assay ('Binding Activity'), format not described; lyophilized formula B6 after 4 C for 6 months

- IC50 (Her2 (ErbB2) [1]): 15.2 pM
- IC50 (Her2 (ErbB2) [2]): 12.6 pM
- IC50 (Her2 (ErbB2) [3]): 13.3 pM
- IC50 (Her2 (ErbB2) [4]): 14.8 pM
- IC50 (Her2 (ErbB2) [5]): 13.2 pM
- IC50 (Her2 (ErbB2) [6]): 12.9 pM
- IC50 (Her2 (ErbB2) [7]): 12.7 pM
- IC50 (Her2 (ErbB2) [8]): 12.2 pM
- IC50 (Her2 (ErbB2) [9]): 13.3 pM
B1: recombinant humanized anti-Her2 monoclonal antibody-MMAE conjugate (RC48-vc-MMAE) (antibody, INN chains, looked up, V domains shown, not shown: a dimerising Fc or GST)
VH: EVQLVQSGAEVKKPGATVKISCKVSGYTFTDYYIHWVQQAPGKGLEWMGRVNPDHGDSYYNQKFKDKATITADKSTDTAYMELSSLRSEDTAVYFCARNYLFDHWGQGTLVTVSS
VL: DIQMTQSPSSVSASVGDRVTITCKASQDVGTAVAWYQQKPGKAPKLLIYWASIRHTGVPSRFSGSGSGTDFTLTISSLQPEDFATYYCHQFATYTFGGGTKVEIK
modifications: vedotin: mc-vc-PAB-MMAE payload
